As usually defined, the stoichiometry N is the number of molecules, sites or subunits per partner or assembly.

Series [1] deals with the molecule itself. The series is described as follows: AUC; sedimentation velocity of the cores; 76-306 nM rE2/E3BP, 60-260 nM rE2, 116-730 nM tE2/E3BP; PEBS100 buffer (2 mM EDTA, 100 mM NaCl, 50 mM KH2PO4, pH 7.5); 20,000 rpm, 4 °C; interference optics.
Series [2] addresses T1, bovine heart E2 of the native bovine PDC core (bE2/E3BP) (bovine, UniProt P11180 87-647).
T1 construct: E2 (dihydrolipoamide acetyltransferase) of bovine heart pyruvate dehydrogenase complex, native; also called E2 of bE2/E3BP; source: purified from bovine heart PDC (sucrose gradients in 2 M NaCl), as bE2/E3BP core
T1 sequence (looked up): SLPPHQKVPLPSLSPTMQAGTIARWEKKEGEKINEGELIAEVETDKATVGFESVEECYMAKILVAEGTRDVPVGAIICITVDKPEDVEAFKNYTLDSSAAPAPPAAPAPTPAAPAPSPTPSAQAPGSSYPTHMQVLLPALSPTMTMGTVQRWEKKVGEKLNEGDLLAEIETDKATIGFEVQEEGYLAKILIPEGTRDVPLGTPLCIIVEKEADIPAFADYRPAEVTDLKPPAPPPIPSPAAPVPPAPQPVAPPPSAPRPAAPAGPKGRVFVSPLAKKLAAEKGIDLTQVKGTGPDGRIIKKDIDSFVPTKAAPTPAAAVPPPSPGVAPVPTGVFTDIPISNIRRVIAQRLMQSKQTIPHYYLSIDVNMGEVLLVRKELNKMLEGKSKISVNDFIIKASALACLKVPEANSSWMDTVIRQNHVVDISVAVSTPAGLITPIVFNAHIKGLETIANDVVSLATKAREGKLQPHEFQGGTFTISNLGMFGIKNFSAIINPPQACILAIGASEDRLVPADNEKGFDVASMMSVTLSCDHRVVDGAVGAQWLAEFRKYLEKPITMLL
Put plainly: SAXS; beamline X33 EMBL/DESY; PEBS100 buffer; 830.9 nM rE2/E3BP and 183.1 nM bE2/E3BP used for ab initio modelling (GASBOR, icosahedral symmetry). The conditions noted are these: both partners purified.

B1: recombinant full-length E2-only PDC core (rE2); dihydrolipoamide acetyltransferase of human pyruvate dehydrogenase complex (enzyme, UniProt P10515 87-647, looked up)
chain: SLPPHQKVPLPSLSPTMQAGTIARWEKKEGDKINEGDLIAEVETDKATVGFESLEECYMAKILVAEGTRDVPIGAIICITVGKPEDIEAFKNYTLDSSAAPTPQAAPAPTPAATASPPTPSAQAPGSSYPPHMQVLLPALSPTMTMGTVQRWEKKVGEKLSEGDLLAEIETDKATIGFEVQEEGYLAKILVPEGTRDVPLGTPLCIIVEKEADISAFADYRPTEVTDLKPQVPPPTPPPVAAVPPTPQPLAPTPSAPCPATPAGPKGRVFVSPLAKKLAVEKGIDLTQVKGTGPDGRITKKDIDSFVPSKVAPAPAAVVPPTGPGMAPVPTGVFTDIPISNIRRVIAQRLMQSKQTIPHYYLSIDVNMGEVLLVRKELNKILEGRSKISVNDFIIKASALACLKVPEANSSWMDTVIRQNHVVDVSVAVSTPAGLITPIVFNAHIKGVETIANDVVSLATKAREGKLQPHEFQGGTFTISNLGMFGIKNFSAIINPPQACILAIGASEDKLVPADNEKGFDVASMMSVTLSCDHRVVDGAVGAQWLAEFRKYLEKPITMLL
notes: E2 (dihydrolipoamide acetyltransferase) of the human pyruvate dehydrogenase complex, full-length recombinant; monomer printed as 61 kDa; 60-mer mass from composition 3,741,780 Da; Cultures were supplemented with lipoic acid on induction; source: E. coli BL21 star (DE3), pET14b, purified (zinc chelate, anion exchange, gel filtration); not shown: His tag, N-terminal, kept; copies: 60
B1: the “stoichiometry N” value in series [1] is 60.

B2: bovine heart E3BP of the native bovine PDC core (bE2/E3BP) (natural protein, UniProt P22439 54-501, looked up)
chain: ADPIKILMPSLSPTMEEGNIVKWLKKEGEAVSAGDALCEIETDKAVVTLDASDDGILAKIVVAEGSKNIRLGSLIGLLVEEGEDWKHVEIPKDTGPPPPAAKPSVPPPSAEPQIATPVKKEHPPGKVQFRLSPAARNILEKHALDANQGTATGPRGIFTKEDALKLVQLKQTGKITEPRPTAALPTTPAAPLPPQAAATASYPRPMIPPVSTPGQPNVEGTFTEIPASNIRRVIAKRLTESKSTIPHAYATTDCDLGAVLTARQNLVRDDIKVSVNDFIIKAAAVTLKQMPNVNASWDGEGAKQLPSIDISVAVATDRGLITPVIKDAAAKGLQEIADSVKALSKKARDGKLLPEEYQGGSFSISNLGMFGIDEFTAVINPPQACILAVGRFRPVLKLTQDEEGNAQLQQRQLITVTMSSDSRVVDDELATRFLESFKANLENPLRLA
notes: also called E3BP of bE2/E3BP; source: purified from bovine heart PDC (sucrose gradients in 2 M NaCl), as bE2/E3BP core
For B2, the binding result in series [2] is listed as “binds”.

For the origin of these results see paper PMC2880790, “Solution Structure and Characterisation of the Human Pyruvate Dehydrogenase Complex Core Assembly” (Journal of Molecular Biology, 2010).
